What was measured:
KB tumor xenografts = test: KB tumor xenograft in nu/nu rats; type: in vivo; details: EC2629 0.15 µmol/kg iv SIW x 2 weeks
Procedure: Four- to eight-week-old female nu/nu mice and rats (Harlan Sprague Dawley, Inc.), were maintained on a standard 12-h light–dark cycle and fed ad libitum with a low-folate chow (Harlan Teklad diet #TD.01013, Madison, WI) for the duration of dosing and 1 week post dosing schedule. Mice and rats were then switched to Teklad Global 18% Rodent diet (Harlan Teklad diet #2018S) during the monitoring phase of the study. Parental KB, KB-CR2000 or KB-PR10 cells (1 × 10^6/100 µL per nu/nu mouse and 5 × 10^6/200 µL per nu/nu rat) were injected into the subcutis of the dorsal medial area. Mice were divided into groups of 5 and rats in groups of 3–4, and freshly prepared test articles were injected through the lateral tail vein under sterile conditions in a volume of 200 μL/20 g of PBS. […]
Animals in the control groups received no treatment. […] Tumors were measured in two perpendicular directions using Vernier calipers, and their volumes were calculated as V = 0.5 × L × W^2, where L = measurement of longest axis in mm and W = measurement of axis perpendicular to L in mm[16]. As a general measure of gross toxicity, changes in body weights were determined on the same schedule as tumor volume measurements. Survival of animals was monitored daily. […]

[1] = Plasma protein binding (ultrafiltration), rat; type: in vitro ADME; details: 37 °C
Procedure: (§1) Plasma ultrafiltration was used for determination of free and protein bound fractions of EC2629 and EC2491. Samples were extracted and analyzed using fit-for-purpose bioanalytical methods. Briefly, 500 nM EC2629 or EC2491 was spiked into plasma maintained at 37 °C prior to plasma ultrafiltration. Plasma spiked with 500 nM EC2629 or EC2491 was allowed to equilibrate at 37 °C for 30 min prior to processing. Next, 50 μL of plasma was transferred to a clean 1.2 mL plate stored at 2–8 °C for further processing. The remaining plasma sample volumes were transferred to 30 Kd MWCO PES filter to generate plasma ultrafiltrate by centrifugation at 10,000×g for 20 min. After which, 50 μL of each plasma ultrafiltrate was transferred to separate wells in a clean 1.2 mL plate. To all spiked plasma samples, 50 μL of blank plasma ultrafiltrate was added. 50 μL of blank plasma was added to all experimental ultrafiltrate samples. These blank matrix additions normalized the matrix effects for protein binding determination. Samples were then extracted using protein precipitation with a 3:1 ratio of acetonitrile after addition of internal standard. The supernatant transferred to a new plate, evaporated, and reconstituted prior to LC–MS/MS analysis.

[2] = Plasma protein binding (ultrafiltration), dog; type: in vitro ADME; details: 37 °C
Procedure: as §1

[3] = Plasma protein binding (ultrafiltration), human; type: in vitro ADME; details: 37 °C
Procedure: as §1

Plasma stability, dog = type: in vitro ADME; details: 500 nM, 37 °C, 2 h
Procedure: (§2) Whole blood and plasma stability were determined for EC2629 and EC2491 at a concentration of 500 nM. Samples were extracted and analyzed using fit-for-purpose bioanalytical methods. EC2629 or EC2491 was spiked into 1 mL whole blood or plasma maintained at 37 °C for 30 min prior to use . Fifty µl aliquots were then removed at defined timepoints and stored in a 1.2 mL extraction plate prior to analysis. Samples were then extracted using protein precipitation with a 3:1 ratio of acetonitrile after addition of internal standard. The supernatant was then transferred to a new plate, evaporated, and reconstituted prior to LC–MS/MS analysis.

[4] = Whole blood stability, rat; type: in vitro ADME; details: 37 °C, after two hours, read-out: percent remaining in whole blood
Procedure: as §2

[5] = Whole blood stability, dog; type: in vitro ADME; details: 37 °C, after two hours, read-out: percent remaining in whole blood
Procedure: as §2

[6] = Whole blood stability, human; type: in vitro ADME; details: 500 nM, 37 °C, two hours, human blood
Procedure: as §2

## C=C1C[C@H]2C=Nc3cc(OCCCCCOc4cc(N)c(C(=O)N5CC(=C)C[C@H]5C5OCCN5C(=O)OCC(C)(C)SSCCC(=O)NCCNC(=O)CCOCCOCCOCCOCCNC(=O)CCN5C(=O)CC(SC[C@H](NC(=O)[C@H](CC(=O)O)NC(=O)[C@H](CC(=O)O)NC(=O)[C@H](CCCNC(=N)N)NC(=O)[C@H](CC(=O)O)NC(=O)CC[C@H](NC(=O)c6ccc(NCc7cnc8nc(N)[nH]c(=O)c8n7)cc6)C(=O)O)C(=O)O)C5=O)cc4OC)c(OC)cc3C(=O)N2C1 (some centres unmarked) [EC2629]
KB tumor xenografts
  body weight change: did not lose any significant weight
[1]
  fraction unbound at 30 min, 500 nM: 0.026
[2]
  fraction unbound at 30 min, 500 nM: 0.055
[3]
  fraction unbound at 30 min, 500 nM: 0.128
Plasma stability, dog
  plasma stability: stable
[4]
  remaining at 2 h, 500 nM: 75.1%
[5]
  remaining at 2 h, 500 nM: 75.8%
[6]
  whole blood stability: no observed degradation
